Tests used:
Experiment in all cases: two-hybrid library CCNG1;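 also: natural log of median RNA to DNA barcode read ratio; higher means stronger binding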
[1] = target: T1, 4H2134-bA
T1 chain: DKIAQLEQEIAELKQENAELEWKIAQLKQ

[2] = target: T2, 4H2143-bA
T2 chain: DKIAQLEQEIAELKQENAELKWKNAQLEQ

[3] = target: T3, 4H2223-bA
T3 chain: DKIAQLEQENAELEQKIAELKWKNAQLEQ

[4] = target: T4, 4H2438-bA
T4 chain: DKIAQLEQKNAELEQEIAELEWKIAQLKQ

[5] = target: T5, 4H2473-bA
T5 chain: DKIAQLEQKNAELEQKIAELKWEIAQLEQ

[6] = target: T6, 4H2503-bA
T6 chain: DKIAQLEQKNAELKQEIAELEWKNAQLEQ

[7] = target: T7, 4H2588-bA
T7 chain: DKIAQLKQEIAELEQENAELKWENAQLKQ

[8] = target: T8, 4H2692-bA
T8 chain: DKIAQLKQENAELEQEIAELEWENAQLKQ

[9] = target: T9, 4H2717-bA
T9 chain: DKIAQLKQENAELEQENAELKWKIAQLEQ

[10] = target: T10, 4H2839-bA
T10 chain: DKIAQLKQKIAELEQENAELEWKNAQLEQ

[11] = target: T11, 4H2915-bA
T11 chain: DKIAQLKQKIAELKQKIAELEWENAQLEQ

[12] = target: T12, 4H3057-bA
T12 chain: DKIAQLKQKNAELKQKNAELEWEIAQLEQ

[13] = target: T13, 4H319-bA
T13 chain: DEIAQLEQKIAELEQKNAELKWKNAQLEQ

[14] = target: T14, 4H3277-bA
T14 chain: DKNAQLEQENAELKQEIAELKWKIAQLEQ

[15] = target: T15, 4H348-bA
T15 chain: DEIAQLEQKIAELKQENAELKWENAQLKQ

[16] = target: T16, 4H40-bA
T16 chain: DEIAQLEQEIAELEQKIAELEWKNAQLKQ

[17] = target: T17, 4H477-bA
T17 chain: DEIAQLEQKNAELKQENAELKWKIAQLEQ

[18] = target: T18, 4H492-bA
T18 chain: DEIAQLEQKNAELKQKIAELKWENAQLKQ

[19] = target: T19, 4H741-bA
T19 chain: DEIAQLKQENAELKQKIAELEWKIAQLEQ

[20] = target: T20, O14-bN
T20 chain: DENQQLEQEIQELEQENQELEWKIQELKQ

[21] = target: T21, P3mS
T21 chain: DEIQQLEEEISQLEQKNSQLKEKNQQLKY

[22] = target: T22, P5mS
T22 chain: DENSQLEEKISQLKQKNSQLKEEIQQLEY

[23] = target: T23, P6mS
T23 chain: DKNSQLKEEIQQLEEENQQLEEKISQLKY

[24] = target: T24, P7mS
T24 chain: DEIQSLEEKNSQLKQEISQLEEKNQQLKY

[25] = target: T25, P8mS
T25 chain: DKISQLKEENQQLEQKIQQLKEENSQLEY

[26] = target: T26, P9mS
T26 chain: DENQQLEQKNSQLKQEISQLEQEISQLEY

[27] = target: T27, 4H2937-bN
T27 chain: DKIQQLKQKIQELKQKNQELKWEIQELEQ

[28] = target: T28, 4H2944-bN
T28 chain: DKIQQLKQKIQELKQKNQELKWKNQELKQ

[29] = target: T29, 4H342-bN
T29 chain: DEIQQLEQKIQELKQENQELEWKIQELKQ

[30] = target: T30, 4H48-bN
T30 chain: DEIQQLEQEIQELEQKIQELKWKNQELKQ

[31] = target: T31, 4H491-bN
T31 chain: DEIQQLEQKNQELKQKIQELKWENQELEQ

B1: 4H2134-bA (peptide)
chain: DKIAQLEQEIAELKQENAELEWKIAQLKQ
Question: For B1, which interaction score [1] is on record?
Answer: 1.43

Question: What about the interaction score [2] of the same binder?
Answer: 1.32

Question: What about the interaction score [3] of the same binder?
Answer: -0.522

Question: And the interaction score [4]?
Answer: 0.819

Question: And the interaction score [5]?
Answer: 0.432

Question: What about the interaction score [6] of the same binder?
Answer: 0.834

Question: And the interaction score [7]?
Answer: 0.531

Question: What about the interaction score [8] of the same binder?
Answer: -0.139

Question: And the interaction score [9]?
Answer: -0.277

Question: What about the interaction score [10] of the same binder?
Answer: 0.969

Question: And the interaction score [11]?
Answer: 1.66

Question: What about the interaction score [12] of the same binder?
Answer: 2.33

Question: What about the interaction score [13] of the same binder?
Answer: -0.399

Question: And the interaction score [14]?
Answer: 0.0479

Question: What about the interaction score [15] of the same binder?
Answer: -1.14

Question: And the interaction score [16]?
Answer: 0.811

Question: And the interaction score [17]?
Answer: 0.935

Question: What about the interaction score [18] of the same binder?
Answer: 0.114

Question: And the interaction score [19]?
Answer: -1.46

Question: What about the interaction score [20] of the same binder?
Answer: -1.45

B2: P3mS (peptide)
chain: DEIQQLEEEISQLEQKNSQLKEKNQQLKY
Question: How did the interaction score [21] turn out when B2 was run?
Answer: -1.02

Question: What about the interaction score [22] of the same binder?
Answer: -0.969

Question: And the interaction score [23]?
Answer: -0.88

Question: What about the interaction score [24] of the same binder?
Answer: -1.59

Question: And the interaction score [25]?
Answer: -1.66

Question: What about the interaction score [26] of the same binder?
Answer: -0.496

B3: 4H2937-bN (peptide)
chain: DKIQQLKQKIQELKQKNQELKWEIQELEQ
Question: Which results are given for B3?
Answer: interaction score [27]: -0.616; interaction score [28]: -1.12; interaction score [29]: 1.46; interaction score [30]: -0.313; interaction score [31]: -1.11
